Reference: the supplement of paper PMC9170038

Tested on: MS2 coat protein
Test: apparent KD of MS2 coat protein; designed switch direction (-1 OFF switch, 1 ON switch): 1; higher = weaker reporter binding
Summary of the method: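 Designed RNA switches with common flanks were transcribed on Illumina chips by stalled E. coli RNA polymerase and titrated with SNAP-549-labelled MS2 coat protein, from 0.7 or 1.5 nM doubling to 3 µM, in Tris-HCl pH 7.5 buffer with KCl, MgCl2, BSA, DTT, tRNA and Tween-20. Steps lasted 0.8–1.5 h (lowest) to 10–20 min (highest). Titrations ran without input, with 200 uM small-molecule ligand, or with an oligonucleotide input. Normalised cluster fluorescence was curve-fitted, and apparent KD is the per-design median over clusters.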

[1] = Eterna round: R95, input ligand: FMN 200 uM
[2] = Eterna round: R95, input ligand: microRNA oligo, concentration not stated
[3] = Eterna round: R95, input ligand: none
[4] = input ligand: microRNA oligo, concentration not stated

Sequence | apparent KD of MS2 coat protein [1] | apparent KD of MS2 coat protein [2] | apparent KD of MS2 coat protein [3] | apparent KD of MS2 coat protein (input ligand: FMN 200 uM) | apparent KD of MS2 coat protein [4] | apparent KD of MS2 coat protein (input ligand: none)
UUUAGUUGCGGGCAGGAUAUGUAUUAAAAUACAUGAGGAUCACCCAUGUGAGGUCAUAACGACCUACAGAAGGGCCAAUCGCGAC [Laonerce - 15] (puzzle: Same State 2) | 17.2 nM | 64.4 nM | 86.1 nM |  |  | 
GUGGUCAGACAUGAGGAUCACCCAUGUGGAAUAAAUAAGGACUAGGAUAUUUAAUAUAGGAUAUAAAAGAAGGAGUGGUUGGUG (Eterna round: R96, puzzle: Same State NG 3) |  |  |  | 85.1 nM | 44.1 nM | 59.6 nM
GAGGGACAGACCAACAUGAGGAUCACCCAUGUCCUCGCAGGUCAGGAUAUCCGGCCAACAGGCAAGGAGAAGGGACGGUGAACC (Eterna round: R96, puzzle: Same State NG 3) |  |  |  | 418 nM | 344 nM | 479 nM
GGCUAUCGCAUUCGAUAGCCUGAGCAUGUACAUGAGGAUCACCCAUGUCAUGUACAGGCUUUUUGCUCGUACUUAUA (puzzle: Sensor for hsa-mir-208a) | 71 nM | 13.6 nM | 93.4 nM |  |  | 
UGUUGUAUUACAGGAUAUCUAUUAGUUAUAUUUAGAGAAGGGUAUUCACAUGAGGAUCACCCAUGUAUAUACGAGGAAGUUGUG [JMF's solution 91] (Eterna round: R96, puzzle: Same State NG 1) |  |  |  |  | 42.3 nM | 
GUUACAUGAGGAUCACCCAUGUAUGUGUGGGAGUAAGUGUCUUAGGAUAUCUAUGAUUUAAUUAAAGAGAAGGAAGAUUGUUGU [JMF's solution 83] (Eterna round: R96, puzzle: Same State NG 3) |  |  |  | 154 nM | 85 nM | 103 nM
AUUUUUAAUGCAGGAUAUGAUUAACAUGAGGAUCACCCAUGUGGUGUUGUGAGUAAGGAGAGUGAUCAGAAGGGCAUUUUUGUU [JMF's solution 85] (Eterna round: R96, puzzle: Same State NG 2) |  |  |  | 686 nM | 466 nM | 715 nM
UGUUGUAUUACAGGAUAUCUAGUAUGUUUAUUUAGAGAAGGGUAUUCACAUGAGGAUCACCCAUGUAUAUACGAGGAAGUUGUG [JMF's solution 38] (Eterna round: R96, puzzle: Same State NG 1) |  |  |  |  | 30.8 nM | 
CUGCUACAUGAGGAUCACCCAUGUUGGAGUGAUGCAGGAUAUGUGGGACCAGAAGAUGAAACAGAAGGGCAAGGAG [JR_SS!_Sub006] (puzzle: Same State 1) | 110 nM | 95.7 nM | 152 nM |  |  | 
UAUUUAAUCGUAGGAUAUAGAAUGAAAUUUGUACUAGAAGGACGUUACAUGAGGAUCACCCAUGUGGUAAGUGGGACAUAGUUU [JR_SSNG1_Sub036] (Eterna round: R96, puzzle: Same State NG 1) |  |  |  | 141 nM | 84.5 nM | 82.2 nM
UUCUCAUUUACAUGAGGAUCACCCAUGUUUUUUUGUCAGAAAUAGGAUAUAGGUCUCUCGUUUUACUAGAAGGAUUUCUUUAUU [JR_SSNG3_Sub088] (Eterna round: R96, puzzle: Same State NG 3) |  |  |  | 146 nM | 134 nM | 145 nM
UUGCAGUCAGGUGAGGAUAUCAUGAAUUUAACAUGAGGAUCACCCAUGUGCUGCCUUGCAGCAUAUGAGAAGGCACCUGGCUGCU [JL-ss2-3.02 Brourd Mod] (puzzle: Same State 2) | 106 nM | 923 nM | 859 nM |  |  | 
